Results taken from patent US10787678 (UNIVERSITY OF GEORGIA RESEARCH FOUNDATION, dated 2020).

Legend:
Cry3Bb toxin [1] = target: T1, Cry3Bb toxin (Bacillus thuringiensis, UniProt Q06117 64-652); assay: cell-based or functional assay
Cry3Bb toxin [2] = target: T1, Cry3Bb toxin; assay: ELISA, biotinylated peptide titrated on plate-coated activated Cry3Bb; one-site saturation binding fit of specific binding

T1 sequence (Q06117 64-652 limits assumed): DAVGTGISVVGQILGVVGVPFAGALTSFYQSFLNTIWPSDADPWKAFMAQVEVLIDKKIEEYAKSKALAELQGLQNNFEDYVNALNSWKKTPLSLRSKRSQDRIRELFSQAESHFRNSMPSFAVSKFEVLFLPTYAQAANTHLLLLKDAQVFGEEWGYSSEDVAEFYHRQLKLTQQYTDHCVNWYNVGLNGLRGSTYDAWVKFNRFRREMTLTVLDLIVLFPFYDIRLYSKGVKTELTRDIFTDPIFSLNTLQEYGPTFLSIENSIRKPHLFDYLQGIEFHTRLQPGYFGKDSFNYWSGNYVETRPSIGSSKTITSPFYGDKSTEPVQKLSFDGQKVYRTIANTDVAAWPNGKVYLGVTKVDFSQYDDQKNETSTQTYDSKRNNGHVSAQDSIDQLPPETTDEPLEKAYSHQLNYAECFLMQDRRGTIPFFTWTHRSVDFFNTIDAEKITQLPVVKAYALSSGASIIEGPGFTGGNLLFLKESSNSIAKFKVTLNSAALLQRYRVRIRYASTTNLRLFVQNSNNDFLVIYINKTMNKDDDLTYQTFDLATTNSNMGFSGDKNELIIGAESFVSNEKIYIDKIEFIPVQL

B1: AdCad1-CR9 peptide (peptide)
chain: TEMIYKLTVEASIKEQTQINGKPTFARCEFNVGFFDKDNTDPIFKNKHEDTHEMAEEDDTLFYVLIENATYAKEDVPDDLSTFYLLAEGERDIFDVDKFTGKVTLNKPLDYETKKSHSLTIQSSNSDKLKLNASEETKLHLTIIVTDINDHAPVM
modifications: biotinylated with sulfo-NHS-photocleavable biotin (50-fold molar excess) in the binding assay
notes: Expressed in E. coli from pET-30a (Nde I / Xho I), purified from inclusion bodies on a Ni-chelating column; In the bioassays it was used unlabelled, as inclusion bodies; also called biotinylated-AdCad1-CR9; not shown: C-terminal His-tag from the pET-30a vector
**Q.** How did the “larval mortality with Cry3Bb (10 ug/cm^2) plus peptide at a 1:10 mass ratio, against 10% with toxin alone” value (Cry3Bb toxin [1]) turn out when B1 was run?
**A.** Its value is over 25%.

**Q.** What about the Kd (Cry3Bb toxin [2]) of the same binder?
**A.** Its Kd is 23.2 nM.

B2: AdCad1-MPED peptide (peptide)
chain: DSDSYITVLPLVDAVSTAKLVTIHATDPDDTSEVQYQIESCIGSGDLLQKLCGNNPFEINKISGEISAQIQSANLSKWDGHFNLTVTAADEAGFDDKNHTDEAVVTLYLVTKLHLVAFDFENSLEQVQNKSNEIKTILDEQFAETSDGGTPYVATVQGANAKSDEITTATVYFLNLKQQKPVNKDNIYSYCTNTQYFGSMRSAFLAEGLSLMSFDGTSNETEDMEEILT
modifications: biotinylated with sulfo-NHS-photocleavable biotin (50-fold molar excess) in the binding assay
notes: Expressed in E. coli from pET-30a (Nde I / Xho I), purified from inclusion bodies on a Ni-chelating column; In the bioassays it was used unlabelled, as inclusion bodies; also called biotinylated-AdCad1-MPED; not shown: C-terminal His-tag from the pET-30a vector
**Q.** With B2 as the binder, how does the “larval mortality with Cry3Bb (10 ug/cm^2) plus peptide at a 1:10 mass ratio, against 10% with toxin alone” value (Cry3Bb toxin [1]) read?
**A.** The value was over 25%.

**Q.** What about the Kd (Cry3Bb toxin [2]) of the same binder?
**A.** The Kd was 40.6 nM.
